Consider two molecules from publication PMC11285730 (Open Biology, 2024).

The target in the experiment is SARS-CoV-2 Wuhan RBD, de-glycosylated (SARS-CoV-2, UniProt P0DTC2). The experiment is described as follows: crystal structure. Particulars: both partners purified.

B1: B5-5 monomer (VHH)
VHH: QVQLVESGGGLVQPGGSLRLSCAVFGSTLDNYSVGWFRQLPGKEREGLACFSRRYGAPYYADSAKDRFTISRDNAKNTVDLQLNGLKPEDTAVYYCATRSGPYCTTSVSDFDDWGRGTQVTVSS
B1: the binding result is “binds”.

B2: A8 monomer (VHH)
VHH: QVQLVESGGGLVQAGGSLRLSCAASGGTFSTAAMGWFRQAPGEERECVASIGWRGVRTWYADSVKGRFTISRDNPQNTVYLQMNNLKSGDTAVYYCAASVGNYGLPWAHFEYDFWGQGIQVTVSS
As to B2, the binding result was “binds”.
